Measured values published in the supplement of paper PMC12636428.

System: Saccharomyces cerevisiae
Test: transcriptional activation domain activity (GFP:mCherry ratio, weighted mean of sorted bins, harmonized to initial dataset scale) (arbitrary fluorescence ratio units); higher = stronger transcriptional activation
Details: beta-estradiol 1 µM; induction time 4 h
Method in brief: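 After a 1:5 dilution into SC with 1 uM beta-estradiol and 4 hours at 30 °C, yeast diploids carrying a GFP reporter and URA3-integrated barcoded tiles were sorted into 8 bins by GFP:mCherry ratio. The tiles were fused to an estradiol-inducible synthetic transcription factor. Barcodes were sequenced, tiles below 50 reads were discarded, and activation activity was taken as the read-weighted mean of bin median fluorescence, averaged across barcodes and linearly mapped onto the initial dataset scale.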

Sequence	transcriptional activation domain activity
KGGGAGGGKRAKKEESSDDEAAKPLAKRGKGTANGRANGKARASSAAPVDNQK	44600
KGGKRKRREEDDGEEKDSFGGRRGDDGPSRIAKNEGGDGRAGKHKRSGDDGKE	31100
KGGRKCKKGRAGEEAGMPARRRKGGERGGRGGKTGARGGEEGGGGEGGAARNG	34800
KGGSEKSGNAGKKEDAGKKEAEKKKVEAGKNQGKGKQNTGSGGNKKAAKKGKK	18400
KGGSSPEEASAQSGGARSKEAKETGSSPTGGEVGKSGGKSNKSESSEEKSKDG	19900
KGHVKTGILSANDGVPPTPNLLDYDWNNLNITGYEWISSELRDDALLSAVTLQ	131000
KGIAGLGPTKTIGLFVVLYIATAIFVFVYIVMQFLLVFGTLTERWPAGHLAFC	52200
KGKAAKSGWDDDEDEKKKEEGEGEGGDGGDKSGDIGAGGDGDKKDEASGNADG	27500
KGKGKGKEGKGKGRREGEGGRGTEGREMGEKEREEEREEEREGKEGRREGGKE	24100
KGKGRENVPESESESEEDGDSSPPKAPVRGARGRGRGASRGRGRGRAPAPAAA	< 6570
KGKGRREGGEGGEEREGNRERKRGRGREGKGGKERGNGRGKEGQRKEEREGKG	33500
KGKGRRRGRGRGRGRGRGREGKGKGREGEGKGKGKEKGKGKGKGKGKGKGKGR	28000
KGKQRSEGGGGNRKGGRPPRRIDEDAADSSSNDAGAEGGAKGSEPTKAAKAAS	33400
KGKSKERKTESASTSGSEAKESEAAPKEEKEDAKKEDDKKEKAEEKTEEKAEE	51500
KGLNGPKKEDGGDGESRKRGRPEEDEEERKEGGGGGRRARRRERLQGAAGGGS	18600
KGRAEKKKKSSRRRDESESEGEEGEGGGGGGGRAPPKKRARLASKKEAQSGKY	31500
KGRDEEDFPLDYFPVSVEYPTEENAFDPFPPQAFTPAAPSMPISYDNVNERDS	33400
KGRGGGKGRGGGKERGGGKGRGGEGEGEGEGEREGGGRGKERGREGEREGERG	21800
KGRSRENSRQRGNEDRVARGRDESRSRKTGGREASEDRGRSISRQWTPKPAKR	22600
KGVAVADRVVKFVAGYVAYATEQDAAKRPEGEEDVETPSSRFVTKLLRHLLSG	56400
KHERDDEKERKHRKHDKPSKDKDGEDDDGEGRRHKKHRKHKERGSDDEDEHRK	22500
KHEREFEGNSNRDREVVQGKREGGGGERGGRGRGAGGGGERGRGRGNSGRGDG	12500
KHLAEAGLGIAAAGAAKELYDHRKHHRSSSVSSSGGEHNHNGRHIAAAALGAT	28000
KHLEAADGVEDDHRSTVIDQGNDELLVKWASDEGIIEKKPQGRFRLILGGGAS	70100
KHMHLESKPPQLPPKCSSLRKPTNTLQGTNHAYHEHILNTDMDLKILEDLCNI	64100
KHPQNTTTDIENEVENPVTDDNGNLKLELPDNLDNADFSKLLEFDAKNDEALF	33600
KHRSSINTVLVVGGDDKVVKQAGDALKGKLGVKGGGKGPRWSGKFIGVWKAAR	50100
KHYRRRLLQRDILKRKRWSIGLKTLVLLRDLGVFVHHHTVVKALQMQFIVLFG	57200

Sequence	transcriptional activation domain activity
KIAAGAALATAAGVGLHHLRERQRSQSRSSSSERSGRSRSRHRLRHAAELGAA	64000
KIHIANMAQVAVFLLHKILYGIIPLFEISTCAYFPLLISLWHLNYLLFYTVMF	63200
KIHIVNMAQVIVLCIHRFLYGIIPLFEISTCIYFPLLVSLWHITYILFYIVMF	55200
KIHLLPTGVHQWNLKVKDLIHCLKLFHYAEIMYALSIVPLKAAIIFQCLRVFV	47200
KIHLVNIAQVVVFFIYRFLYGLIPLFEISTCAYYPLLVSLWHLDYLLFYTVMF	64000
KIHLVNIAQVVVFFIYRLLYGLIPLFEIATCAYYPLLVSLWHLDYLLFYTVMF	62800
KIHLVNIGQVLVLLLHRFLYGIIPLFEITTCAYFPFLVSLWHIQYILFYAVMF	84900
KIHLVNISQVVVFFVYRFLYGLIPLFEIATCAYYPLLVSLWHLDYLLFYAVMF	48100
KIHLVNLAQVSVFFIHRVLYGIIPLFEIKTCAYFPLLVSLWHMTYILFYIVMF	71200
KIHLVNLAQVTVFFIHRLLYGIIPLFEIATCAYYPFLVSLWHINYLLFYIVMF	42000
KIHLVNLGQISVFFIHRFLFGLIPLFEITTCAFFPLLISLWHIDYLLFYTVMF	39800
KIHLVNLLQISVLFVHRFIFGLVPLFEITTCAFFPLLISLWHLDYILFYVVMF	53800
KIHLVNLSQVVVFFIHRILFGIIPLFEIETCAYFPLLISLWHLTYLLFYVVMF	80700
KIHLVNMAQVVVIFLHRILYGIIPLFEITTCAYFPLLVSLWHLAYILFYVVMF	81600
KIISAFGWNADKHLGFALLQLCMDGNRIRSPLAAMMLLMYYVTLMTHCPQILT	63700
KILLNHNYFYFRMLCHHQTCNIYNLYHQIFLIFLQIIVSILLSLRIIALYLGN	66400
KILNCLSIRLYLCRKGFGSLPNEQLALFNFNARECLRALGVTLFKPRLYRLCY	80900
KILVQAFKAVFTSPSSAKEADGDGEGADIIENNRRARRALYQVKVKTCVASII	42000
KIMSFIIGLGLICPLVLVRDKLTILLTLCYEGLLVGFWFIDHAQALRWYCLFI	68700
KINQIFGYRSGLGFSIITLDWNQIAYIGSPYVAGSFRWAEANVMIGFMFFYWF	70300
KIRTNALLSSFLVSLTEGAANGTRFASPEGAVTSALVRIFLRLIWLWTATGRR	57200
KISAEYMVQYKGGLIGKHFKSLSQIMAFVVYDLVPKDILDAWTIIGRLVVLLW	75900
KISALCCVLSVFKIDDLVNDPILNKVLHLNNIYLDVLISLILRNNQPTIELMV	57900
KISVCWLWGLDSLHLAFCIYMMYWYLITNFCVVAELGCFNIQTFFASKAFVIL	49800
KIVKHVILAATWRTSSVQDSFYLLATWWIICWQFYFVSVYIFPLILIALLHYM	60700
KKAAAALNGEAADGEATAEGEGAPKREPRAKKPRTPRPRRAPGEEPAGEPSKN	44900
KKAEKQEGEDKEKEEKPKPSRGKKRKESEEPNGASAEGEEEPVAKKAKPASKA	49000
